Measured values taken from patent US20250154279A1 (BEIGENE, published 2025).

Columns and labels:
[1] = target: T1, human CD137 (recombinant antigen of the ELISA of Example 2 and the SPR of Example 3; construct not stated) (human, UniProt Q07011 24-186, limits assumed); test: SPR, antibody captured on anti-human Fc surface, Test 2
T1 construct: also called huCD137
Text: (§1) For affinity determination, antibodies were captured by anti-human Fe surface, and used in the affinity—assay based on surface plasmon resonance (SPR) technology.

[2] = target: T1, human CD137 (recombinant antigen of the …); test: SPR, antibody captured on anti-human Fc surface, Test 1
Text: as §1

[3] = target: T2, human CD137 over-expressed on HuT78 cells (HuT78/CD137) (human, UniProt Q07011 24-255); test: flow cytometry on live HuT78/CD137 cells
T2 construct: also called Hut78/huCD137; native CD137
T2 sequence (Q07011 24-255 limits assumed): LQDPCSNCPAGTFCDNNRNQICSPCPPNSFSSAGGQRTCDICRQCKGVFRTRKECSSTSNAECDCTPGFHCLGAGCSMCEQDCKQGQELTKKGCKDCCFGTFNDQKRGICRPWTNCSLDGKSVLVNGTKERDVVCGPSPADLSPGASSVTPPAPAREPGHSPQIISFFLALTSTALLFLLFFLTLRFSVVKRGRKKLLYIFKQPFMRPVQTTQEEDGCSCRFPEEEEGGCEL
Procedure: To evaluate the binding activity of anti-CD137 antibody to bind native CD137 on live cells, HuT78 cells were engineered to over-express human CD137. Live HuT78/CD137 cells were seeded in a 96-well plate, and were incubated with a series of dilutions of anti-CD137 antibody. Goat anti-Human IgG was used as secondary antibody to detect antibody binding to the cell surface. EC₅₀ values for dose-dependent binding to human native CD137 were determined by fitting the dose-response data to the four-parameter logistic model with GraphPad Prism™. The humanized VHHs retained sub-nanomolar binding affinity to native CD137.

[4] = target: T1, human CD137 (recombinant antigen of the …); test: SPR
[5] = target: T1, human CD137 (recombinant antigen of the …); test: SPR; remark: listed apart in the source

B1: BGA-9612 (chimeric Fc-VHH, as compared with the humanized VHHs in Examples 3-4) (VHH)
chain: EPKSSDKTHTCPPCPAPPAAGPSVFLFPPKPKDTLMISRTPEVTCVVVDVSHEDPEVKFNWYVDGVEVHNAKTKPREEQYNSTYRVVSVLTVLHQDWLNGKEYKCKVSNKALAAPIEKTISKAKGQPREPQVYTLPPSREEMTKNQVSLTCLVKGFYPSDIAVEWESNGQPENNYKTTPPVLDSDGSFFLYSKLTVDKSRWQQGNVFSCSVMHEALHNHYTQKSLSLSPGKGGGGSQVQLVESGGGTVQPGDSLRLSCAASGRTFDNYAVGWFRQAPGKERQYVGTYWSGYAHYGDFENNRFTISRDNAKNTVYLQMDNLKPEDTAVYYCAISLKYPMATVTPDYQGQGTQVTVSS
Binder B1 has a Kd [1] of 15.2 nM, a koff [1] of 0.000754 s⁻¹ and a kon [1] of 49500 M⁻¹ s⁻¹. It also gave a Kd [2] of 20.3 nM, a koff [2] of 0.000419 s⁻¹ and a kon [2] of 20700 M⁻¹ s⁻¹. For the same binder, the EC50 [3] was 0.85 nM, the Kd [4] was 20.3 nM and the koff [4] was 0.000419 s⁻¹. It also gave a kon [4] of 20700 M⁻¹ s⁻¹.

B2: BGA-6582-R45L (VHH)
chain: EPKSSDKTHTCPPCPAPPAAGPSVFLFPPKPKDTLMISRTPEVTCVVVDVSHEDPEVKFNWYVDGVEVHNAKTKPREEQYNSTYRVVSVLTVLHQDWLNGKEYKCKVSNKALAAPIEKTISKAKGQPREPQVYTLPPSREEMTKNQVSLTCLVKGFYPSDIAVEWESNGQPENNYKTTPPVLDSDGSFFLYSKLTVDKSRWQQGNVFSCSVMHEALHNHYTQKSLSLSPGKGGGGSEVQLLESGGGLVQPGGSLRLSCAASGRTFDNYAVGWFRQAPGKELQYVGTYWSGYAHYGDFENNRFTISRDNSKNTVYLQMNSLRAEDTAVYYCAISLKYPMATVTPDYQGQGTLVTVSS
With B2 the Kd [5] was 14.8 nM, the koff [5] was 0.000413 s⁻¹ and the kon [5] was 27800 M⁻¹ s⁻¹.

B3: BGA-6582-I94K (VHH)
chain: EPKSSDKTHTCPPCPAPPAAGPSVFLFPPKPKDTLMISRTPEVTCVVVDVSHEDPEVKFNWYVDGVEVHNAKTKPREEQYNSTYRVVSVLTVLHQDWLNGKEYKCKVSNKALAAPIEKTISKAKGQPREPQVYTLPPSREEMTKNQVSLTCLVKGFYPSDIAVEWESNGQPENNYKTTPPVLDSDGSFFLYSKLTVDKSRWQQGNVFSCSVMHEALHNHYTQKSLSLSPGKGGGGSEVQLLESGGGLVQPGGSLRLSCAASGRTFDNYAVGWFRQAPGKERQYVGTYWSGYAHYGDFENNRFTISRDNSKNTVYLQMNSLRAEDTAVYYCAKSLKYPMATVTPDYQGQGTLVTVSS
B3: no binding [5].

B4: BGA-6582-F37V (VHH)
chain: EPKSSDKTHTCPPCPAPPAAGPSVFLFPPKPKDTLMISRTPEVTCVVVDVSHEDPEVKFNWYVDGVEVHNAKTKPREEQYNSTYRVVSVLTVLHQDWLNGKEYKCKVSNKALAAPIEKTISKAKGQPREPQVYTLPPSREEMTKNQVSLTCLVKGFYPSDIAVEWESNGQPENNYKTTPPVLDSDGSFFLYSKLTVDKSRWQQGNVFSCSVMHEALHNHYTQKSLSLSPGKGGGGSEVQLLESGGGLVQPGGSLRLSCAASGRTFDNYAVGWVRQAPGKERQYVGTYWSGYAHYGDFENNRFTISRDNSKNTVYLQMNSLRAEDTAVYYCAISLKYPMATVTPDYQGQGTLVTVSS
B4: no binding [5].

B5: BGA-6582-E44G (VHH)
chain: EPKSSDKTHTCPPCPAPPAAGPSVFLFPPKPKDTLMISRTPEVTCVVVDVSHEDPEVKFNWYVDGVEVHNAKTKPREEQYNSTYRVVSVLTVLHQDWLNGKEYKCKVSNKALAAPIEKTISKAKGQPREPQVYTLPPSREEMTKNQVSLTCLVKGFYPSDIAVEWESNGQPENNYKTTPPVLDSDGSFFLYSKLTVDKSRWQQGNVFSCSVMHEALHNHYTQKSLSLSPGKGGGGSEVQLLESGGGLVQPGGSLRLSCAASGRTFDNYAVGWFRQAPGKGRQYVGTYWSGYAHYGDFENNRFTISRDNSKNTVYLQMNSLRAEDTAVYYCAISLKYPMATVTPDYQGQGTLVTVSS
Binder B5 has a Kd [5] of 9.16 nM, a koff [5] of 0.000242 s⁻¹ and a kon [5] of 26400 M⁻¹ s⁻¹.

B6: BGA-3544 (humanized VHH, Fc-VHH format) (VHH)
chain: EPKSSDKTHTCPPCPAPPAAGPSVFLFPPKPKDTLMISRTPEVTCVVVDVSHEDPEVKFNWYVDGVEVHNAKTKPREEQYNSTYRVVSVLTVLHQDWLNGKEYKCKVSNKALAAPIEKTISKAKGQPREPQVYTLPPSREEMTKNQVSLTCLVKGFYPSDIAVEWESNGQPENNYKTTPPVLDSDGSFFLYSKLTVDKSRWQQGNVFSCSVMHEALHNHYTQKSLSLSPGKGGGGSEVQLVESGGGLVQPGGSLRLSCAASGRTFDNYAVGWFRQAPGKEREYVGTYWSGYAHYGDFEKGRFTISRDNSKNTVYLQMNNLRPEDTAVYYCAISLKYPMATVTPDYQGQGTQVTVSS
B6 gave a Kd [1] of 17.6 nM, a koff [1] of 0.000999 s⁻¹ and a kon [1] of 56900 M⁻¹ s⁻¹. The EC50 [3] was 0.85 nM.

B7: BGA-3726 (BGA-6582-Q46E) (VHH)
chain: EPKSSDKTHTCPPCPAPPAAGPSVFLFPPKPKDTLMISRTPEVTCVVVDVSHEDPEVKFNWYVDGVEVHNAKTKPREEQYNSTYRVVSVLTVLHQDWLNGKEYKCKVSNKALAAPIEKTISKAKGQPREPQVYTLPPSREEMTKNQVSLTCLVKGFYPSDIAVEWESNGQPENNYKTTPPVLDSDGSFFLYSKLTVDKSRWQQGNVFSCSVMHEALHNHYTQKSLSLSPGKGGGGSEVQLLESGGGLVQPGGSLRLSCAASGRTFDNYAVGWFRQAPGKEREYVGTYWSGYAHYGDFENNRFTISRDNSKNTVYLQMNSLRAEDTAVYYCAISLKYPMATVTPDYQGQGTLVTVSS
In the case of B7, the Kd [5] is reported as 14.3 nM, the koff [5] is reported as 0.000432 s⁻¹ and the kon [5] is reported as 30200 M⁻¹ s⁻¹.

B8: BGA-6582 (humanized VHH from BGA-9612, Fc-VHH format) (VHH)
chain: EPKSSDKTHTCPPCPAPPAAGPSVFLFPPKPKDTLMISRTPEVTCVVVDVSHEDPEVKFNWYVDGVEVHNAKTKPREEQYNSTYRVVSVLTVLHQDWLNGKEYKCKVSNKALAAPIEKTISKAKGQPREPQVYTLPPSREEMTKNQVSLTCLVKGFYPSDIAVEWESNGQPENNYKTTPPVLDSDGSFFLYSKLTVDKSRWQQGNVFSCSVMHEALHNHYTQKSLSLSPGKGGGGSEVQLLESGGGLVQPGGSLRLSCAASGRTFDNYAVGWFRQAPGKERQYVGTYWSGYAHYGDFENNRFTISRDNSKNTVYLQMNSLRAEDTAVYYCAISLKYPMATVTPDYQGQGTLVTVSS
Work on B8 yielded a Kd [5] of 13.6 nM, a koff [5] of 0.000593 s⁻¹ and a kon [5] of 43500 M⁻¹ s⁻¹. It also gave a Kd [2] of 27.7 nM, a koff [2] of 0.000588 s⁻¹ and a kon [2] of 21200 M⁻¹ s⁻¹. For the same binder, the Kd [4] was 27.7 nM, the koff [4] was 0.000588 s⁻¹ and the kon [4] was 21200 M⁻¹ s⁻¹.

B9: BGA-6582-Y47W (VHH)
chain: EPKSSDKTHTCPPCPAPPAAGPSVFLFPPKPKDTLMISRTPEVTCVVVDVSHEDPEVKFNWYVDGVEVHNAKTKPREEQYNSTYRVVSVLTVLHQDWLNGKEYKCKVSNKALAAPIEKTISKAKGQPREPQVYTLPPSREEMTKNQVSLTCLVKGFYPSDIAVEWESNGQPENNYKTTPPVLDSDGSFFLYSKLTVDKSRWQQGNVFSCSVMHEALHNHYTQKSLSLSPGKGGGGSEVQLLESGGGLVQPGGSLRLSCAASGRTFDNYAVGWFRQAPGKERQWVGTYWSGYAHYGDFENNRFTISRDNSKNTVYLQMNSLRAEDTAVYYCAISLKYPMATVTPDYQGQGTLVTVSS
B9: no binding [5].

B10: BGA-7031 (humanized VHH, Fc-VHH format) (VHH)
chain: EPKSSDKTHTCPPCPAPPAAGPSVFLFPPKPKDTLMISRTPEVTCVVVDVSHEDPEVKFNWYVDGVEVHNAKTKPREEQYNSTYRVVSVLTVLHQDWLNGKEYKCKVSNKALAAPIEKTISKAKGQPREPQVYTLPPSREEMTKNQVSLTCLVKGFYPSDIAVEWESNGQPENNYKTTPPVLDSDGSFFLYSKLTVDKSRWQQGNVFSCSVMHEALHNHYTQKSLSLSPGKGGGGSEVQLVESGGGLVQPGGSLRLSCAASGRTFDNYAVGWFRQAPGKEREYVGTYWSGYAHYGDFENNRFTISRDNSKNTVYLQMNNLRPEDTAVYYCAISLKYPMATVTPDYQGQGTQVTVSS
B10 was tested, and the Kd [1] was 11.7 nM, the koff [1] was 0.000719 s⁻¹ and the kon [1] was 61600 M⁻¹ s⁻¹. For the same binder, the EC50 [3] was 0.88 nM.

B11: BGA-6582-G49S (VHH)
chain: EPKSSDKTHTCPPCPAPPAAGPSVFLFPPKPKDTLMISRTPEVTCVVVDVSHEDPEVKFNWYVDGVEVHNAKTKPREEQYNSTYRVVSVLTVLHQDWLNGKEYKCKVSNKALAAPIEKTISKAKGQPREPQVYTLPPSREEMTKNQVSLTCLVKGFYPSDIAVEWESNGQPENNYKTTPPVLDSDGSFFLYSKLTVDKSRWQQGNVFSCSVMHEALHNHYTQKSLSLSPGKGGGGSEVQLLESGGGLVQPGGSLRLSCAASGRTFDNYAVGWFRQAPGKERQYVSTYWSGYAHYGDFENNRFTISRDNSKNTVYLQMNSLRAEDTAVYYCAISLKYPMATVTPDYQGQGTLVTVSS
B11: no binding [5].

B12: BGA-6582-V78L (VHH)
chain: EPKSSDKTHTCPPCPAPPAAGPSVFLFPPKPKDTLMISRTPEVTCVVVDVSHEDPEVKFNWYVDGVEVHNAKTKPREEQYNSTYRVVSVLTVLHQDWLNGKEYKCKVSNKALAAPIEKTISKAKGQPREPQVYTLPPSREEMTKNQVSLTCLVKGFYPSDIAVEWESNGQPENNYKTTPPVLDSDGSFFLYSKLTVDKSRWQQGNVFSCSVMHEALHNHYTQKSLSLSPGKGGGGSEVQLLESGGGLVQPGGSLRLSCAASGRTFDNYAVGWFRQAPGKERQYVGTYWSGYAHYGDFENNRFTISRDNSKNTLYLQMNSLRAEDTAVYYCAISLKYPMATVTPDYQGQGTLVTVSS
B12 showed a Kd [5] of 13.6 nM, a koff [5] of 0.000593 s⁻¹ and a kon [5] of 43500 M⁻¹ s⁻¹.
